Assay results from patent US20260152552A1 (CURON BIOPHARMACEUTICAL SHANGHAI, published 2026).
Changes are numbered by the printed parent chain.

B1: mouse anti-L1CAM monoclonal antibody 25F8H8 (antibody, V domains shown)
VH: QVQLQQSGAELAKPGASVKMSCQASGYTFTTYWMHWVKQRPGQGLEWIGYINPSTGYTDYNQKFKDKATLTADKSSSTAYMQLSSLTSEDSAVYYCARRQLGLPLFDYWGQGTTLTVSS
VL: DIVMTQSHKFLSTSVGDRVSITCKASQDVGTAVAWYQHKPGQSPKLLIFWASTRHTGVPDRFTGSGSGTDFTLTISNVQSEDLADYFCQQYSNYPLTFGAGPKLELK
notes: Mouse IgG tested as hybridoma supernatant
B2: mouse anti-L1CAM monoclonal antibody 26A12C1 (antibody, V domains shown)
VH: B1 VH with Q23K, T31N, H35Q, G56Y, T58S, Y80F, L101F, V117L
VL: B1 VL with L11M, H38Q, F49Y, A84T, P102T, K103E
notes: as for B1
B3: mouse anti-L1CAM monoclonal antibody 46F1D5 (antibody, V domains shown)
VH: B1 VH with L4V, V18M, Q23K, T31R, H35Q, K63N, Q100H
VL: B1 VL with L11M, V15L, H38Q, F49Y, D85E, P102T, E105D
notes: as for B1
B4: mouse anti-L1CAM monoclonal antibody 49E10H1 (antibody, V domains shown)
VH: DVQLQESGPGLVKPSQSLSLTCTVTGYSITSDYAWNWIRQFPGNRLEWMGYITYSGTTTYNPSLKSRISITRDTSKNQFFLQLNSVTTADTATYYCTLDHYGNYAYFDYWGQGTTLTVSS
VL: QIVLSQSPAILSASPGEKVTMTCRASSSVSFMHWYQQKPRSSPKPWIYASSNLVSGVPTRFSGSGSGTSYSLTISRVEAEDAATYYCQQWSSNPSTFGAGTKLELK
notes: as for B1
B5: mouse anti-L1CAM monoclonal antibody 103E9B3 (antibody, V domains shown)
VH: EVQLQQSGPELLKPGASVKISCKASGYTFTSYTMHWVKQSHGKSLEWIGDINPNYGGTSYNEKFKDKATLTVDKSSSTAYMELRSLTSEDSAVYYCAREGATGTWYFDVWGTGTTVTVSS
VL: QIVLTQSPALMSASPGEKVTMTCSASSSVSFMFWYQQKPRSSPKPWIYLTSNLASGVPARFSGSGSGTSYSLTISSMEAEDAATYYCQQWRSNPPTFGAGTKLELK
notes: as for B1

Target: T1, human L1CAM (L1 cell adhesion molecule), endogenously expressed on the surface of HeLa cells (human, UniProt P32004 20-1257)
T1 construct: whole, on cells; also called CD171
T1 sequence (P32004 20-1257): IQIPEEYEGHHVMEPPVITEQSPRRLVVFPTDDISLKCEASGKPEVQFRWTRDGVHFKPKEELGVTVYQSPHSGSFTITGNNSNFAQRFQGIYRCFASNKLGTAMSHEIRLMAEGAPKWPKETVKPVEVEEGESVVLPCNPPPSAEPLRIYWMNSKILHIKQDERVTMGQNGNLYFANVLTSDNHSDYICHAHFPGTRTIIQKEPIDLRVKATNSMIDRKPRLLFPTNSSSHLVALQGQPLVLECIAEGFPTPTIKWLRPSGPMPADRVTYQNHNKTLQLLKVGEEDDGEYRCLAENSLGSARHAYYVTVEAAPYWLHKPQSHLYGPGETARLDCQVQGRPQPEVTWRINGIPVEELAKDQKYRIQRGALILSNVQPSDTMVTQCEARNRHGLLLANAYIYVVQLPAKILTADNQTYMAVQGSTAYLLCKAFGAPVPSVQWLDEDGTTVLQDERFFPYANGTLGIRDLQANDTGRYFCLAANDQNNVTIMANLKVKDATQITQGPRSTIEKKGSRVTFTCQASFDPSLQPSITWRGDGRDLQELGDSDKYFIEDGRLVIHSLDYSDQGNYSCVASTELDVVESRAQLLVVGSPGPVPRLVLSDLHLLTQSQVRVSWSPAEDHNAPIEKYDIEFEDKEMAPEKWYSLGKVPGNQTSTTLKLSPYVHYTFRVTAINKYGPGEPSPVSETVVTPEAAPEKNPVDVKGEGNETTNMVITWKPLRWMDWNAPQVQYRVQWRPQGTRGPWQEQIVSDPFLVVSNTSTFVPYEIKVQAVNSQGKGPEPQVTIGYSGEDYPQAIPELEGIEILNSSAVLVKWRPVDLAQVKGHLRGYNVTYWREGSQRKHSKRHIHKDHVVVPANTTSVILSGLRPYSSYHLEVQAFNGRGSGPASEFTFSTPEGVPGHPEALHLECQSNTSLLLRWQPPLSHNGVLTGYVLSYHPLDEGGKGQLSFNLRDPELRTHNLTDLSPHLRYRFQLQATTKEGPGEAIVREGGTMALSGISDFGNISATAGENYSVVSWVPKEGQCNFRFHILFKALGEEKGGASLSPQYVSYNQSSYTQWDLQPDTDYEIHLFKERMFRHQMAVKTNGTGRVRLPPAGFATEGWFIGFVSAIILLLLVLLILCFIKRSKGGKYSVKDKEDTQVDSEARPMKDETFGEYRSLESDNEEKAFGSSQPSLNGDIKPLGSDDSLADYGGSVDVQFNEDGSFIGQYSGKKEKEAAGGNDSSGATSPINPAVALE
Test: flow cytometry on HeLa cells (endogenous human L1CAM), hybridoma supernatant
Description: HeLa cells used in this example were used to measure the binding of mouse anti-L1CAM monoclonal antibodies to endogenously expressed human L1CAM on the cell surface. HeLa cells were cultured in DMEM complete medium (purchased from Corning) containing 10% FBS (purchased from Gibco) and 100 U/mL penicillin-streptomycin mixture (Thermofisher, 15140122). When the coverage of the cells in the culture container reached to 80-90%, using TrypLE (purchased from Thermofisher) to digest Hela cells from the culture container, and seed them in a 96-well plate (purchased from AXYGEN) at a density of 4×10⁶ cells/ml, with 100,000 cells per well (25 μL DMEM complete culture medium), then add 25 μL of diluted hybridoma supernatant containing antibodies to each well, mix gently, and incubate the 96-well plate at 4° C. for 1 hour. Then add 150 μL of PBS buffer containing 2% FBS (purchased from Corning) to each well, centrifuge at 1400 rpm for 4 minutes, remove the supernatant, and repeat washing once. Then, 50 μL of 1:800 diluted Alexa Flour 647-labeled goat anti-mouse fluorescent secondary antibody (purchased from Jacksonimmuno) was added to each well, and the 96-well plate was incubated at 4° C. for 0.5 hours. The cells were washed twice with PBS solution containing 2% FBS, and then resuspended in 120 μL of PBS. The fluorescence signal on the cell surface was detected using a flow cytometer (BD FACSCelesta) to obtain the median fluorescence intensity (MFI). The antibody-containing hybridoma supernatant was assayed using an anti-mouse ELISA assay to determine the concentration of mouse IgG in the supernatant. Finally, a dose-response curve was generated, and the half effective concentration (EC50) was calculated by nonlinear regression using GraphPad software.

Binder | EC50 [nM]
B1 | 0.193
B2 | 0.241
B3 | 0.144
B4 | 0.233
B5 | 0.436
